Source: patent US20130064834A1 (published 2013)
Values belong to the binder of their own block, whether it stands above or below them.

Columns and labels:
[1] = molecular target: T1, Human PCSK9-myc-myc-his (human, UniProt Q8NBP7 31-692); test: competition ELISA vs EGF-AB-hFc, pH 5.5
T1 construct: also called hPCSK9-mmh; hPCSK9
Description: (§1) Briefly, hLDLR-ecto, hLDLR EGF-A-hFc or hLDLR EGF-AB-hFc, each at 2 μg/ml, was coated on a 96-well plate in PBS buffer overnight at 4° C., and nonspecific binding sites blocked with BSA. […] The equilibrated sample solutions were transferred to receptor or receptor fragment coated plates.

[2] = molecular target: T1, Human PCSK9-myc-myc-his; test: SPR, antigen captured at high density, pH 5.5, 25C
[3] = molecular target: T2, his-tagged Syrian golden hamster (Mesocricetus auratus) PCSK9 (Syrian golden hamster (Mesocricetus …)); test: competition ELISA vs EGF-A, pH 7.2
T2 construct: also called maPCSK9-h; maPCSK9
T2 chain: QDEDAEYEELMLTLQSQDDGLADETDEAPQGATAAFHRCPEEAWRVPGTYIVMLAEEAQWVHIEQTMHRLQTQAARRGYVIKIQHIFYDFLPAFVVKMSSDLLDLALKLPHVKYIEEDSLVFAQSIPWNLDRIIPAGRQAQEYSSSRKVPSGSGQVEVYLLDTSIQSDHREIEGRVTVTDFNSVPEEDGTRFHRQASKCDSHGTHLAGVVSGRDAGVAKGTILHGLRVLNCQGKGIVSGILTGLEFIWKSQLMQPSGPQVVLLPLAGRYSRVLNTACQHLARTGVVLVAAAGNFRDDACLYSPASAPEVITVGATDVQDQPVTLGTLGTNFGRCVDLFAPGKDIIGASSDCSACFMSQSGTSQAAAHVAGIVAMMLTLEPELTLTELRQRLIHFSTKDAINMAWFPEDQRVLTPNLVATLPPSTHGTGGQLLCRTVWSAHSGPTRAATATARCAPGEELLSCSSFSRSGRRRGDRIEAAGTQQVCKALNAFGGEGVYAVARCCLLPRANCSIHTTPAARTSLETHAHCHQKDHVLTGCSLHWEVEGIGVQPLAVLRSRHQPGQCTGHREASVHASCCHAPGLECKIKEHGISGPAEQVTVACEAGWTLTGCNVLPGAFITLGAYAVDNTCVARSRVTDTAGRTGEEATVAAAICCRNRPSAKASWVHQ
Description: as §1

[4] = molecular target: T3, cynomolgus monkey (Macaca fascicularis) PCSK9, myc-myc-his tagged (cynomolgus monkey (Macaca fascicularis), UniProt A8T662 31-692 (Macaca nemestrina entry), limits assumed); test: competition ELISA vs EGF-A, pH 7.2
T3 construct: also called mfPCSK9-mmh; mfPCSK9
Description: as §1

[5] = molecular target: T4, hPCSK9(R237E) (human, UniProt Q8NBP7 31-692); test: SPR, mAb captured, 25C;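 further: antibodies held on a sensor chip bearing chemically coupled F(ab′)2 anti-human IgG as the capture surface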
T4 construct: mmh-tagged variant hPCSK9
Excerpt: (§2) Each selected antibody was captured on a F(ab′)2 anti-hIgG surface created through direct chemical coupling to a BIACORE™ chip to form a captured antibody surface.

[6] = molecular target: T5, hPCSK9(S147F) (human, UniProt Q8NBP7 31-692); test: SPR, mAb captured, 25C;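 further: antibodies held on a sensor chip bearing chemically coupled F(ab′)2 anti-human IgG as the capture surface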
T5 construct: mmh-tagged variant hPCSK9
Excerpt: as §2

[7] = molecular target: T6, hPCSK9(S153R) (human, UniProt Q8NBP7 31-692); test: SPR, mAb captured, 25C;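 further: antibodies held on a sensor chip bearing chemically coupled F(ab′)2 anti-human IgG as the capture surface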
T6 construct: mmh-tagged variant hPCSK9
Excerpt: as §2

[8] = molecular target: T7, hPCSK9(E366K, V380M) (human, UniProt Q8NBP7 31-692); test: SPR, mAb captured, 25C;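 further: antibodies held on a sensor chip bearing chemically coupled F(ab′)2 anti-human IgG as the capture surface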
T7 construct: mmh-tagged variant hPCSK9
Excerpt: as §2

[9] = molecular target: T8, hPCSK9(R215H) (human, UniProt Q8NBP7 31-692); test: SPR, mAb captured, 25C
T8 construct: mmh-tagged variant hPCSK9
Excerpt: as §2

[10] = molecular target: hPCSK9(P70A, S147F) (human, UniProt Q8NBP7 31-692); test: SPR, mAb captured, 25C
Excerpt: as §2

[11] = molecular target: T9, hPCSK9(D374Y)-mmh (human, UniProt Q8NBP7 31-692); test: SPR, mAb captured, 25C
T9 construct: also called hPCSK(D374Y)-mmh
Excerpt: as §2

[12] = molecular target: T10, hPCSK9(R194E) (human, UniProt Q8NBP7 31-692); test: SPR, mAb captured, 25C
T10 construct: mmh-tagged variant hPCSK9
Excerpt: as §2

[13] = molecular target: T11, hPCSK9(T162R) (human, UniProt Q8NBP7 31-692); test: SPR, mAb captured, 25C
T11 construct: mmh-tagged variant hPCSK9
Excerpt: as §2

[14] = molecular target: T12, hPCSK9(D238R) (human, UniProt Q8NBP7 31-692); test: SPR, mAb captured, 25C
T12 construct: mmh-tagged variant hPCSK9
Excerpt: as §2

[15] = molecular target: T13, hPCSK9(E159R) (human, UniProt Q8NBP7 31-692); test: SPR, mAb captured, 25C
T13 construct: mmh-tagged variant hPCSK9
Excerpt: as §2

[16] = molecular target: T1, Human PCSK9-myc-myc-his; test: SPR, mAb captured, 25C
Excerpt: as §2

[17] = molecular target: T14, hPCSK9(V380M) (human, UniProt Q8NBP7 31-692); test: SPR, mAb captured, 25C
T14 construct: mmh-tagged variant hPCSK9
Excerpt: as §2

[18] = molecular target: T15, hPCSK9(D192R) (human, UniProt Q8NBP7 31-692); test: SPR, mAb captured, 25C
T15 construct: mmh-tagged variant hPCSK9
Excerpt: as §2

[19] = molecular target: T16, hPCSK9(E366K) (human, UniProt Q8NBP7 31-692); test: SPR, mAb captured, 25C
T16 construct: mmh-tagged variant hPCSK9
Excerpt: as §2

[20] = molecular target: T17, hPCSK9(R357H) (human, UniProt Q8NBP7 31-692); test: SPR, mAb captured, 25C
T17 construct: mmh-tagged variant hPCSK9
Excerpt: as §2

[21] = molecular target: T18, hPCSK9(A341R) (human, UniProt Q8NBP7 31-692); test: SPR, mAb captured, 25C
T18 construct: mmh-tagged variant hPCSK9
Excerpt: as §2

[22] = molecular target: T19, hPCSK9(E197R) (human, UniProt Q8NBP7 31-692); test: SPR, mAb captured, 25C
T19 construct: mmh-tagged variant hPCSK9
Excerpt: as §2

[23] = molecular target: T1, Human PCSK9-myc-myc-his; test: competition ELISA vs hLDLR-ecto, pH 5.5
Description: as §1

T3 sequence (A8T662 31-692 limits assumed): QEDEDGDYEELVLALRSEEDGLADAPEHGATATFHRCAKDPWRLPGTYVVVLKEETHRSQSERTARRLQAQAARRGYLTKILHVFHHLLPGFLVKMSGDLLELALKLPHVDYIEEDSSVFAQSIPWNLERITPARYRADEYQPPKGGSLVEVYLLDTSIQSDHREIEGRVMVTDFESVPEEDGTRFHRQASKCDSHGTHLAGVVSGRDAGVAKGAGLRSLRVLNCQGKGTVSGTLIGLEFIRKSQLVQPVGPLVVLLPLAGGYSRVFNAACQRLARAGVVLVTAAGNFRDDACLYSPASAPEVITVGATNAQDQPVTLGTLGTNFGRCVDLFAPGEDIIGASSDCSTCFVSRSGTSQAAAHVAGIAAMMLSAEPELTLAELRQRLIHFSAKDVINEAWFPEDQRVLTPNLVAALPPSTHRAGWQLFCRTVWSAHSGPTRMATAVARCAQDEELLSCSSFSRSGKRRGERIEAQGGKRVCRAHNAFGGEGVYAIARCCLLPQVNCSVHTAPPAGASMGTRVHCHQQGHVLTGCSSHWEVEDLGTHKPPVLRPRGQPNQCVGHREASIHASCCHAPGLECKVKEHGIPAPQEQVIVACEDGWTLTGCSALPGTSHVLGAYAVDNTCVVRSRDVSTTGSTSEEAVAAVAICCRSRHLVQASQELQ

B1: H1H316P (antibody, V domains shown)
VH: EVQLVESGGGLVQPGGSLRLSCAASGFTFNNYAMNWVRQAPGKGLDWVSTISGSGGTTNYADSVKGRFIISRDSSKHTLYLQMNSLRAEDTAVYYCAKDSNWGNFDLWGRGTLVTVSS
VL: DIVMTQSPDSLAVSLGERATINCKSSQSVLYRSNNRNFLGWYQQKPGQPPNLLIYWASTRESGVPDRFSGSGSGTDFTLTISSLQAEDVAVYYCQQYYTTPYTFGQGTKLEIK
notes: Fully human mAb made in CHO cells; also called mAb316P
IC50 [1]: < 0.125 nM
Kd [2]: 0.144 nM
T1/2 [2]: 83 min
IC50 [3]: 0.349 nM
IC50 [4]: 0.075 nM
Kd [5]: 2.48 nM
T1/2 [5]: 15 min
Kd [6]: 1.29 nM
T1/2 [6]: 32 min
Kd [7]: 5.64 nM
T1/2 [7]: 4 min
Kd [8]: 3.33 nM
T1/2 [8]: 12 min
Kd [9]: 0.86 nM
T1/2 [9]: 41 min
Kd [10]: 1.18 nM
T1/2 [10]: 34 min
Kd [11]: 2.04 nM
T1/2 [11]: 15 min
Kd [12]: 0.38 nM
T1/2 [12]: 71 min
Kd [13]: 0.98 nM
T1/2 [13]: 43 min
Kd [14]: 410 nM
T1/2 [14]: 1 min
Kd [15]: 6.96 nM
T1/2 [15]: 5 min
Kd [16]: 1 nM
T1/2 [16]: 37 min
Kd [17]: 0.48 nM
T1/2 [17]: 63 min
Kd [18]: 1.35 nM
T1/2 [18]: 28 min
Kd [19]: 2.92 nM
T1/2 [19]: 13 min
Kd [20]: 6.26 nM
T1/2 [20]: 30 min
Kd [21]: 1.54 nM
T1/2 [21]: 21 min
Kd [22]: 1.42 nM
T1/2 [22]: 27 min
IC50 [23]: < 0.125 nM

IC50 [1]: 0.447 nM
Kd [2]: 1.18 nM
T1/2 [2]: 26 min
IC50 [3]: > 100 nM
IC50 [4]: 0.473 nM
Kd [5]: 1.03 nM
T1/2 [5]: 109 min
Kd [6]: 9.07 nM
T1/2 [6]: 24 min
Kd [7]: 0.56 nM
T1/2 [7]: 141 min
Kd [8]: 78.3 nM
T1/2 [8]: 1 min
Kd [9]: 1.03 nM
T1/2 [9]: 98 min
Kd [10]: 7.87 nM
T1/2 [10]: 24 min
Kd [11]: 0.66 nM
T1/2 [11]: 83 min
Kd [12]: 0.65 nM
T1/2 [12]: 129 min
Kd [13]: 0.58 nM
T1/2 [13]: 140 min
Kd [14]: 0.78 nM
T1/2 [14]: 123 min
Kd [15]: 0.82 nM
T1/2 [15]: 94 min
Kd [16]: 0.69 nM
T1/2 [16]: 120 min
Kd [17]: 2.82 nM
T1/2 [17]: 28 min
Kd [18]: 0.75 nM
T1/2 [18]: 119 min
Kd [19]: 36 nM
T1/2 [19]: 2 min
Kd [20]: 6.53 nM
T1/2 [20]: 66 min
Kd [21]: 0.34 nM
T1/2 [21]: 190 min
Kd [22]: 0.67 nM
T1/2 [22]: 115 min
IC50 [23]: 1.49 nM
B2: H1M300N (antibody, V domains shown)
VH: EMQLVESGGGLVQPGGSLRLSCAASGFTFSSHWMKWVRQAPGKGLEWVANINQDGSEKYYVDSVKGRFTISRDNAKNSLFLQMNSLRAEDTAVYYCARDIVLMVYDMDYYYYGMDVWGQGTTVTVSS
VL: not shown
notes: Fully human version made in CHO cells
